The target in data set [1] is T1, human P450 11A1 (Homo sapiens, UniProt P05108).
T1 sequence (P05108 41-521 limits assumed): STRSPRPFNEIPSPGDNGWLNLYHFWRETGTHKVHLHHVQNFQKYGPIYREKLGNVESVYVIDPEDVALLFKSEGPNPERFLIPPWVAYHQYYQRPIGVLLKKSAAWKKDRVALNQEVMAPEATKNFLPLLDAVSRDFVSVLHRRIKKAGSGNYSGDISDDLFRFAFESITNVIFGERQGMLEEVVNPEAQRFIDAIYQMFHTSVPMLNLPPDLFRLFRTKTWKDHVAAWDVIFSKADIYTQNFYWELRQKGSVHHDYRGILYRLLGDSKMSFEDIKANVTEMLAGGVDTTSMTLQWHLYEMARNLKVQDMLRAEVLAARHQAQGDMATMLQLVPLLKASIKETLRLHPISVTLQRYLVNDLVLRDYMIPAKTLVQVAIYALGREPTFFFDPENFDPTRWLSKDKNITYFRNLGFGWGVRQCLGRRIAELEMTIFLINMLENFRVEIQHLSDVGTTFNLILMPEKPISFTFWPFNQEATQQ
T1 sequence (P00257 59-186 partner): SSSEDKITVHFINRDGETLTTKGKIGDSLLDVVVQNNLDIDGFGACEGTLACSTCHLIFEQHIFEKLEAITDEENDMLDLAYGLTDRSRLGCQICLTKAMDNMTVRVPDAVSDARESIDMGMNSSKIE
In words: Steady-state kinetic assay with [1,2-3H]-cholesterol (radio-HPLC). Further details: M A S T R S P R P F N E I P S P G D N; Met-Ala (N-terminal start residues in place of the transit peptide and Ile40) (N); made in house; host or cells: E. coli (P450 11A1 in C41(DE3); Adx and AdR in E. coli). The format is biochemical. As to conditions: ^3H-cholesterol substrate, triplicate. How it is done:
Samples (held at 4 °C) were injected (50 μl) using a Agilent 1100 Series HPLC system on a NovaPak (Waters) octadecylsilane (C18) 3.9 mm × 100 mm (4 μm) column (held at 25 °C) with a flow rate of 1.0 ml min^−1 using a gradient mobile phase of (A) H2O and (B) CH3CN as follows (all in % B, v/v): 0 min, 70%; 10 min, 100%; 35.5 min, 100%; 37 min, 30%; and 40 min, 70%). The flow rate was increased to 1.5 ml min^−1 (from the 10 min to 10.5 min interval) to decrease the retention of cholesterol and was later returned to 1.0 ml min^−1 (from the 35 min to 35.5 min interval) to prepare for the next injection. The column eluate was mixed (1:2, v/v) with FlowLogic U scintillation cocktail (LabLogic) and radioactivity (^3H) was detected using a β-RAM Model 5 radioflow detector (IN/US, LabLogic). Analytes were quantitated on the basis of their ^3H peak areas relative to the summed radioactivity of the four compounds of interest.
Figure S13. Steady-state kinetic assay of P450 11A1 with [1,2-^3H]-cholesterol. The enzyme reaction was performed in triplicate as described for the steady-state LC-MS assays, but with the use of ^3H-cholesterol (2 mCi mmol^-1) as the substrate. Product (^3H-pregnenolone) was detected by radio-HPLC as described (Experimental Methods). The highest rate measured was 6.7 ± 0.4 nmol product min^-1 (nmol P450)^-1.

Data set [2] deals with T2, human cytochrome P450 11A1 (human, UniProt P05108 40-521).
T2 construct: cytochrome P450 11A1, human, recombinant, codon-optimized insert in pET23C(+); In one titration it was added as a preformed 1:1 complex with cholesterol; also called CYP11A1; P450scc; source: E. coli C41(DE3) with GroES/GroEL, purified (CHAPS solubilisation, Ni-NTA, dialysis)
T2 sequence (looked up): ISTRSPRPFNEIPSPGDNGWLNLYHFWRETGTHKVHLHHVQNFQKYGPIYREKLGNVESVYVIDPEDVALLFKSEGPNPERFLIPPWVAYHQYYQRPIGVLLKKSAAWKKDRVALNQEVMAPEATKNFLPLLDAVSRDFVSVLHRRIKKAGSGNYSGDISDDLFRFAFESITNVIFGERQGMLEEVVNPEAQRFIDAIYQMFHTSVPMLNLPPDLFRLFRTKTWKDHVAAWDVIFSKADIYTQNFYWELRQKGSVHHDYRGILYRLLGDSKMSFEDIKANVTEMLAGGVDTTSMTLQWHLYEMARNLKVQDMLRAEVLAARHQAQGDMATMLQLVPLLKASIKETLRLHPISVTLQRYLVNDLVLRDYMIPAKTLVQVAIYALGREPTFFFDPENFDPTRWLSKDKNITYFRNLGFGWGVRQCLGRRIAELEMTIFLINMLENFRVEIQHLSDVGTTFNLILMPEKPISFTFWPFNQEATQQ
Description: other fluorescence titration; P450 11A1 (0-0.4 uM) titrated into Alexa 488-Adx (50 nM) in 100 mM potassium phosphate pH 7.4; quenching of fluorescence (excitation 493 nm, emission 500-600 nm); quadratic fit; without cholesterol. As to conditions: both partners purified.

Data set [3] addresses T2, human cytochrome P450 11A1. In words: other fluorescence titration; preformed 1:1 complex of P450 11A1 and cholesterol titrated into Alexa 488-Adx (50 nM) in 100 mM potassium phosphate pH 7.4; quenching of fluorescence (excitation 493 nm, emission 500-600 nm); quadratic fit; with cholesterol (equimolar to P450). As to conditions: both partners purified.
The test system of data set [4] is human P450 11A1. Further details: method as in PMID 33271253. The settings on record: surface plasmon resonance, human ref 46; read-out: Kd of P450 11A1-Adx complex, without sterol; cited from earlier work.
The test system of another data set is bovine P450 11A1. Further details: method as in PMID 15181009. The settings on record: surface plasmon resonance, bovine ref 47; read-out: Kd of P450 11A1-Adx complex, without sterol; cited from earlier work.

The source of these data is article PMC10716780, “The multistep oxidation of cholesterol to pregnenolone by human cytochrome P450 11A1 is highly processive” (The Journal of Biological Chemistry, 2023).

As to `[3H]C1C([3H])[C@@]2(C)C(=CC[C@H]3[C@@H]4CC[C@H]([C@H](C)CCCC(C)C)[C@@]4(C)CC[C@@H]32)C[C@H]1O` (some centres unmarked) [[1,2-^3H]-cholesterol, [1,2-^3H]-Cholesterol], the highest rate measured at human P450 11A1 [1] is on record as 6.7 ± 0.4 nmol product min^-1 (nmol P450)^-1.

B1: Alexa Fluor 488-labeled adrenodoxin (natural protein, bovine, UniProt P00257 59-186, looked up)
chain: T1 sequence (P00257 59-186 partner)
modifications: Alexa Fluor 488 label (site not stated)
notes: also called Alexa 488-Adx; Adx
With B1, the results for the equilibrium dissociation constant (Kd) in data set [2] and in data set [3] were 38 nM and 8.2 nM, respectively.

B2: Adx: adrenodoxin, soluble iron-sulfur electron donor protein (recombinant bovine); used fluorescently labeled as Alexa 488-Adx (protein)
chain: T1 sequence (P00257 59-186 partner)
modifications: Alexa Fluor 488 label (site not stated)
notes: adrenodoxin, soluble iron-sulfur electron donor protein (recombinant bovine); used fluorescently labeled as Alexa 488-Adx
Take B2: the dissociation constant (Kd) in the data set with human P450 11A1 [4] was 24 nM; in the data set on bovine P450 11A1, 13.4 nM.
